# Test results published in article PMC5127641 (2016).
# T1: Bcl-w, biotinylated (C-terminal avi-6His) (human, UniProt Q92843 1-193, biotin (enzymatic, BirA))
# T1 chain: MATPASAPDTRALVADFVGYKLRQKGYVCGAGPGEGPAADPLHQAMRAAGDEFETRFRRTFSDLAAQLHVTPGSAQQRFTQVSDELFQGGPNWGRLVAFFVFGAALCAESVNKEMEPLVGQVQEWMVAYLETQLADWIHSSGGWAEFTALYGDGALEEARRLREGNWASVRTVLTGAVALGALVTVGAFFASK
# T2: Mcl-1, biotinylated (C-terminal avi-6His) (human, UniProt Q07820 1-350, biotin (enzymatic, BirA))
# T2 chain: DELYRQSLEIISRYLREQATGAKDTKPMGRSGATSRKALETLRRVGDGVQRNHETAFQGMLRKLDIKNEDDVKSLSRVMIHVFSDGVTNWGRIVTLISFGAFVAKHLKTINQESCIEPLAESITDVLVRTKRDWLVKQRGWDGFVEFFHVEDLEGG
# T3: Bfl-1, biotinylated (C-terminal avi-6His) (human, UniProt Q16548 1-175, biotin (enzymatic, BirA))
# T3 chain: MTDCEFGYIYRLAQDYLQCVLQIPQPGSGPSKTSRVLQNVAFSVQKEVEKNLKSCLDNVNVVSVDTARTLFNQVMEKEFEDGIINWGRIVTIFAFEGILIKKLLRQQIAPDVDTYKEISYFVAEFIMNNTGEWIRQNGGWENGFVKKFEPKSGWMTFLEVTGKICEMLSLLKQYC
# T4: Bcl-B, biotinylated (C-terminal avi-6His) (human, UniProt Q9HD36 1-204, biotin (enzymatic, BirA))
# T4 chain: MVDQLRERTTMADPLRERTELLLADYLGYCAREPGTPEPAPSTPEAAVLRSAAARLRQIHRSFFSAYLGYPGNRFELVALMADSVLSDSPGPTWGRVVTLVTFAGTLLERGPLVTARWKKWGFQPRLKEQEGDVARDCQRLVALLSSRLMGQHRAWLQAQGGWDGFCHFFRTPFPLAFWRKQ
# How the values were obtained:
# Experiment in all cases: BLI
# [1] = biological target: T1, Bcl-w, biotinylated (C-terminal …)
# [2] = biological target: T2, Mcl-1, biotinylated (C-terminal …)
# [3] = biological target: T3, Bfl-1, biotinylated (C-terminal …)
# [4] = biological target: Bcl-xL, biotinylated (C-terminal avi-6His) (human, UniProt Q07817-1 1-233, biotin (enzymatic, BirA))
# [5] = biological target: T4, Bcl-B, biotinylated (C-terminal …)
# [6] = biological target: Bcl-2, biotinylated (C-terminal avi-6His) (human, UniProt P10415 1-239, biotin (enzymatic, BirA))
# Chain of Bcl-2, biotinylated (C-terminal avi-6His) (P10415 1-207): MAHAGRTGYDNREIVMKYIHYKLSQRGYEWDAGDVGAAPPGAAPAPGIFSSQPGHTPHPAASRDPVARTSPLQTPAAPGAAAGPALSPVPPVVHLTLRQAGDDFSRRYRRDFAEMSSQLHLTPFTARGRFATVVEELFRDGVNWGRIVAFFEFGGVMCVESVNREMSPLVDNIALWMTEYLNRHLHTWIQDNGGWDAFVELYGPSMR
# Chain of Bcl-xL, biotinylated (C-terminal avi-6His) (Q07817 1-209): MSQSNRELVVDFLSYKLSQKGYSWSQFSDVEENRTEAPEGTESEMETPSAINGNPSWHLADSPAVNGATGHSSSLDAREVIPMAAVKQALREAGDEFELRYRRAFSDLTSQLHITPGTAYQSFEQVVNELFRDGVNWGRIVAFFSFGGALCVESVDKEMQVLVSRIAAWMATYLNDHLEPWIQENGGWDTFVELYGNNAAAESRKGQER
Binder,Kd [1] [nM],Kd [2] [nM],Kd [3] [nM],Kd [4] [nM],Kd [5] [nM],Kd [6] [nM]
F-ECM04 (enriched combinatorial mutant of F-CDP01) (designed binder) ADPKKVLDKAKDQAENRVRELKQKLEELYKEARKLDLTQEMRKKLEVAALGAVLAAHGDILNAIMQAKEEADKLKKAGLVNSQQLDELKRRLEELKEEALRKASDYGKEFHLKRRY,3800,300,1.1,540,4000,
F-CDP01 (Bfl-1-targeting computationally designed protein) (designed binder) ADPKKVLDKAKDQAENRVRELKQKLEELYKEARKLDLTQEMRKKLQYAAIGAMLAAIGDILNAIMQAKQEADKLKKAGLVNSQQLDELKRRLEELKEEALRKAHDYGSEFYLKLEY,,4.6,2,11,100000,
X-CDP07 (Bcl-xL-targeting computationally designed protein) (designed binder) ADPKKVLDKAKDRAENVVRKLKKELEELYKEARKLDLTQEMRDRIRLAAIAARIAAFGDIFHAIMEALEEARKLKKAGLVNSQQLDELKRRLEELDEEAAQRAEKLGKEFELKLEY,,,> 50000,,,4
2-CDP06 (Bcl-2-targeting Computationally Designed Protein) (designed binder) MADPKKVLDKAKDEAENRVRELKQKLEELYKEARKLDLTQEMRQELVDKARAASLQAIGDIFYAILRALAEAEKLKKAGLVNSQQLDELKRRLEELAEEARRKAEKLGDEFRLKLEYG,1700,> 50000,> 50000,12000,> 50000,9
B-CDP01 (Bcl-B-targeting computationally designed protein) (designed binder) ADPKKVLDKAKDQAENRVRELKQELERLYKEARKLDLTQEMRRKLEWRYIAAMLKAIGDILNAIAQAENEADKLKKAGLVNSQQLDELRRRLEELAKEAARKAHDYGREFQLKLEY,2000,0.46,520,20,8,17

# Further binders by falling Kd [3], results first:
Kd [1] [nM],Kd [2] [nM],Kd [3] [nM],Kd [4] [nM],Kd [5] [nM],Kd [6] [nM],Binder
,,2400,7800,80,,B-ECM01 (enriched combinatorial mutant of B-CDP01) (designed binder) ADPKKILDKAKDQVENRVRELKQELERLYKEARKLDLTQEMRRKLHVRYIAAMLKAIAAILNAIAQAENEADKLKKAGLVNSQQLDELRRRLEELTEEAAQKAHDYGREFQLKLEY
8,57,500,7,410,30,W-CDP03 (Bcl-w-targeting computationally designed protein) (designed binder) ADPKKVFDEAKDRAENNVRRLKQKLEELYKEARKKDLTQEEREKLKEKYKTAMAAAALAAIGDAFNALLKARKLHKNGQVNEQQLEELARRLQELAKEAFQKAKDYANEFEYKLEY
